Experimental data reported in patent US20180311369A1 (WRIGHT STATE UNIVERSITY, published 2018).

Tests used:
[1] = biological target: T1, MAGI-1 PDZ1 domain (Rattus norvegicus (Rat), UniProt Q4L1J4 475-542, limits assumed); test: ligand binding assay with purified MAGI-1 PDZ1
T1 construct: also called MAGI-PDZ-1

[2] = biological target: T2, MAGI-1 PDZ3 domain (Rattus norvegicus (Rat), UniProt Q4L1J4 846-921, limits assumed); test: ligand binding assay with purified MAGI-1 PDZ3
[3] = biological target: T1, MAGI-1 PDZ1 domain; test: ligand binding assay with purified PDZ domain
[4] = biological target: T2, MAGI-1 PDZ3 domain; test: ligand binding assay with purified PDZ domain

T2 sequence (Q4L1J4 846-921 limits assumed): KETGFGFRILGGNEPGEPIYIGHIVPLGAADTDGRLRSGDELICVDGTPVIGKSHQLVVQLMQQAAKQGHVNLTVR
T1 sequence (Q4L1J4 475-542 limits assumed): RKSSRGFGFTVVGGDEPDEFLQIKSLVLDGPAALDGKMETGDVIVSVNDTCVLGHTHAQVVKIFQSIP

Binder | Kd [1] | Kd [2] | binding result [3] | binding result [4]
GRKKRRQRRRPPQYKTDGITVV (also called TAT-PDZ3 peptide) [TAT-CAR^Ex8] | 23 nM | 4 nM | – | –
GRKKRRQRRRPPQAQSQAGSLV (also called TAT-PDZ3 peptide) [TAT-ESAM] | – | 17 nM | no binding | –
GRKKRRQRRRPPQSRTRRETQL (also called TAT-E6) [TAT-HPV E6] | 15 nM | – | – | no binding
GRKKRRQRRRPPQGGKKKETLV (also called TAT-PDZ1 peptide) [TAT-NET1] | 28 nM | – | – | no binding
